{"source": "paper PMC11804868", "about": "(ACS catalysis, 2024)", "proteins": {"B1": {"name": "PikAIV TE wild type (thioesterase domain of the pikromycin polyketide synthase PikAIV) (domain or fragment, Streptomyces venezuelae ATCC 15439, UniProt Q9ZGI2 1057-1346, looked up)", "chain": "AGMFRALFRQAVEDDRYGEFLDVLAEASAFRPQFASPEACSERLDPVLLAGGPTDRAEGRAVLVGCTGTAANGGPHEFLRLSTSFQEERDFLAVPLPGYGTGTGTGTALLPADLDTALDAQARAILRAAGDAPVVLLGHSGGALLAHELAFRLERAHGAPPAGIVLVDPYPPGHQEPIEVWSRQLGEGLFAGELEPMSDARLLAMGRYARFLAGPRPGRSSAPVLLVRASEPLGDWQEERGDWRAHWDLPHTVADVPGDHFTMMRDHAPAVAEAVLSWLDAIEGIEGAGK"}}, "biological_target": "the molecule itself", "assay": "SEC", "data": [{"protein": "B1", "values": [{"measurement": "stoichiometry N", "value": 2}]}]}
